From the supplement of paper PMC11908140

B1: library; numbered along this chain (parent)
chain: MRKPRAAVGSGHRKQAASQEGRQKHAKNNSQAKPSACDGLARQPEEVVLQASVSSYHLFRDVAEVTAFRGSLLSWYDQEKRDLPWRRRAEDEMDLDRRAYAVWVSEVMLQQTQVATVINYYTGWMQKWPTLQDLASASLEEVNQLWAGLGYYSRGRRLQEGARKVVEELGGHMPRTAETLQQLLPGVGRYTAGAIASIAFGQATGVVDGNVARVLCRVRAIGADPSSTLVSQQLWGLAQQLVDPARPGDFNQAAMELGATVCTPQRPLCSQCPVESLCRARQRVEQEQLLASGSLSGSPDVEECAPNTGQCHLCLPPSEPWDQTLGVVNFPRKASRKPPREESSATCVLEQPGALGAQILLVQRPNSGLLAGLWEFPSVTWEPSEQLQRKALLQELQRWAGPLPATHLRHLGEVVHTFSHIKLTYQVYGLALEGQTPVTTVPPGARWLTQEEFHTAAVSTAMKKVFRVYQGQQPGTCMGSKRSQVSSPCSRKKPRMGQQVLDNFFRSHISTDAHSLNSAAQ

Variants of: B1
Assay: 8OG:A repair function score (normalized; synonymous = 0, nonsense = -1) (normalized log-likelihood score); higher = more repair activity (WT-like)
Conditions: with 8OG:A DNA repair reporter (GFP) in HEK-293 MUTYH KO cells
Summary of the method: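 Lentiviral MUTYH cDNA NNN codon-scan libraries in HEK-293 MUTYH knockout cells (10 pg/ml doxycycline) were co-transfected with an 8OG:A GFP repair reporter plus mCherry. At 72 h, viable mCherry+ cells were sorted into GFP+ (repair) and GFP− bins, three replicates per tile, then tile amplicons were sequenced. Per-tile Rosace fitness scores became a normalized repair function score anchored on synonymous and nonsense distributions. Synonymous medians were set to 0 and nonsense to -1; variants under 300 counts per million at the start were removed.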

Row | Variant | 8OG:A repair function score
1 | K390E | -0.0669
2 | K390M | -0.0263
3 | A135W | -0.338
4 | A101E | -0.00955
5 | A101L | -0.0936
6 | A101F | -0.00851
7 | C216R | -0.931
8 | V438P | 0.0371
9 | T179E | -0.0168
10 | Q499I | 0.0124
11 | H420M | -0.23
12 | H420D | -0.651
13 | I359V | -0.0354
14 | I359Q | -0.322
15 | P402F | -0.215
16 | Q182W | -0.114
17 | G356I | -0.348
18 | R446T | -0.232
19 | R446N | -0.508
20 | R446M | -0.121
21 | P377Y | -0.964
22 | K127S | -0.0418
23 | G161L | -1.01
24 | D133I | -0.308

Row | Variant | 8OG:A repair function score
25 | T380Y | 0.0876
26 | S105I | -0.549
27 | G258M | -1.19
28 | P174A | -0.706
29 | L349F | -0.112
30 | L349C | -0.018
31 | L393N | -1.03
32 | L393V | -0.37
33 | Q282N | -0.0575
34 | Q282K | 0.0141
35 | A305R | -0.0332
36 | G471D | 0.0172
37 | R213M | -1.04
38 | R213H | -1.03
39 | R213A | -1.02
40 | R213L | -1.01
41 | Q363H | 0.0355
42 | Q265H | 0.0203
43 | Q265V | -0.0775
44 | A196S | 0.00714
45 | A196W | -1.18
46 | H407W | -0.172
47 | H407I | 0.0779
48 | A520I | -0.0239

Row | Variant | 8OG:A repair function score
49 | A520E | 0.0123
50 | E452H | -0.275
51 | V261I | -0.0723
52 | V348N | -1.04
53 | P264H | -0.113
54 | G170F | -0.166
55 | S226P | -0.642
56 | S226D | -0.146
57 | L396C | -0.199
58 | E141F | -0.392
59 | E141Y | -0.924
60 | E141D | -0.251
61 | G171F | -0.571
62 | R189P | 0.136
63 | M478N | -0.0119
64 | V379M | -0.148
65 | H410G | -0.298
66 | V211T | -0.428
67 | F418Y | -0.368
68 | F418W | -0.969
69 | S459K | -1.03
70 | V468G | -0.557
71 | E382F | 0.0805
72 | W146D | -1.2

Row | Variant | 8OG:A repair function score
73 | L58C | -0.0122
74 | A400Q | -0.0826
75 | A354I | -0.0486
76 | Y190D | -0.858
77 | Y121T | -1.25
78 | Q159I | 0.0245
79 | N307G | -0.0226
80 | R332S | -0.0346
81 | T439Q | -0.173
82 | K464W | -0.474
83 | A291G | -0.0909
84 | A36F | 0.0951
85 | P34R | 0.0769
86 | T122N | 0.119
87 | K333E | -1.01
88 | V415W | 0.0208
89 | R266Y | -0.102
90 | R266P | -0.449
91 | L516S | 0.0241
92 | L516Q | 0.0225
93 | Q252A | -0.658
94 | D224M | -0.995
95 | D224R | -0.978
96 | L361S | -0.625

Row | Variant | 8OG:A repair function score
97 | E285G | -0.0139
98 | R157A | -0.14
99 | R389I | 0.462
100 | R389M | -0.236
101 | D77I | -0.0954
102 | D77H | -0.228
103 | S507V | -0.000918
104 | R467C | -0.137
105 | L430Y | -0.0889
106 | S515K | -0.00207
107 | A137F | -0.738
108 | F68E | -1.5
109 | V458D | -0.952
110 | P317N | 0.0467
111 | L139E | -0.17
112 | L139D | -0.831
113 | P383Q | 0.0121
114 | S378R | -0.122
115 | S55R | -0.0153
116 | Q470N | 0.0117
117 | H172C | -0.0393
118 | P273I | -0.662
119 | C314D | -0.532
120 | C314K | -0.485

Row | Variant | 8OG:A repair function score
121 | W381Q | 0.126
122 | K80E | -0.31
123 | R88I | 0.00568
124 | R88V | -0.0028
125 | L289D | -0.0394
126 | Q450F | 0.013
127 | Q450V | 0.073
128 | Q288N | 0.0202
129 | Q288V | -0.068
130 | P306K | -0.0963
131 | P306D | -0.0656
132 | V142C | -0.143
133 | C477V | -0.0256
134 | G444V | -0.448
135 | P352S | -0.0991
136 | W235L | -0.406
137 | K164C | -0.21
138 | L295P | 0.0289
139 | L295Q | -0.0618
140 | Q435K | 0.0819
141 | A405Y | -0.204
142 | E341F | -0.0534
143 | Q239I | -0.589
144 | Q310E | -0.0263

Row | Variant | 8OG:A repair function score
145 | Q310M | -0.0144
146 | G201F | -0.266
147 | G201D | -0.0211
148 | G201T | -0.23
149 | E46M | -0.119
150 | T417D | -0.0817
151 | V465M | -0.396
152 | M255P | -1
153 | Q351D | -0.266
154 | Q351T | -0.0645
155 | Q351M | 0.0542
156 | S510M | -0.0272
157 | S510E | -0.0364
158 | Q386N | 0.0466
159 | S384Q | -0.345
160 | S384L | -0.000173
161 | E451R | 0.0453
162 | R154M | -1.16
163 | P244E | -0.105
164 | R97N | 0.00607
165 | R97M | -0.0359
166 | G297P | -0.0639
167 | G297W | -0.206
